Experimental data: publication PMC314469, “Protein Interaction Networks by Proteome Peptide Scanning” (PLoS Biology, 2004)

Experiments:
Experiment in all cases: SPOT array
[1] = target: T1, Abp1 SH3 (ABP1_YEAST), P15891
T1 chain: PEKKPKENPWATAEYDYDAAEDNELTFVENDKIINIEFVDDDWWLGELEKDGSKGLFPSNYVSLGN

[2] = target: T2, Boi1 SH3 (BOI1_YEAST), P38041
T2 chain: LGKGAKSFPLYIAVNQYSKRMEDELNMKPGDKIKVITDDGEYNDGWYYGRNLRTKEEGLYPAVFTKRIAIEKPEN

[3] = target: T3, Rvs167 SH3 (RV167_YEAST), P39743
T3 chain: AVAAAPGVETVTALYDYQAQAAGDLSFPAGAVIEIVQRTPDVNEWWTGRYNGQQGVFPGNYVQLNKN

[4] = target: T4, Yhr016c SH3 (YSC84_YEAST), P32793
T4 chain: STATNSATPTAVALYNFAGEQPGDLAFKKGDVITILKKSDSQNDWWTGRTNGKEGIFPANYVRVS

[5] = target: T5, Boi2 SH3 (BOI2_YEAST), P39969
T5 chain: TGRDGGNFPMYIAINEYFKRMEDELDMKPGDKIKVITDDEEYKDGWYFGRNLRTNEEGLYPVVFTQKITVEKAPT

[6] = target: T6, Yfr024 SH3 (LSB3_YEAST), P43603
T6 chain: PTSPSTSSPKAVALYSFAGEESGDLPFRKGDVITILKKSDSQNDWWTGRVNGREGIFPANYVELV

| Binder | normalised SPOT signal, Boehringer light units (BLU); mean over the file's lines of this peptide [1] | further results |
| --- | --- | --- |
| NRMKIMMSMEPKKP [YDL240W 709-722] | 810 | – |
| NITVDYKPSKNKP [YMR104C 326-338] | 108 | – |
| NRPDQIDPAILRP [YDL126C 634-646] | 45.4 | – |
| NNPSNSIPKIEKP [YCL014W 1345-1357] | 108 | – |
| NRLDILDPALLRP [YGL048C 295-307] | 101 | – |
| NLSVRSKRLFPVRP [YAL040C 532-545] | 326 | – |
| NPELEKLSVHPLKP [YNL106C 1166-1179] | 66.1 | – |
| NPVVATDPVAAKP [YFL049W 597-609] | 79 | – |
| NPAPLTNTYIPYKP [YML020W 157-170] | 150 | – |
| NLANGLMDTMPNKP [YBL084C 527-540] | 33.5 | – |
| NNNNLDKPKVKRP [YOL148C 556-568] | 8720 | – |
| NRIQGNLHFAPGKP [YAL042W 215-228] | 253 | – |
| NPIEHVKPIHIKP [YLR201C 20-32] | 66.7 | – |
| NKPGWVVYPPPPKP [YML035C 220-233] | 180 | – |
| NRPDMIDPAMLRP [YLL034C 677-689] | 19.2 | – |
| NLRGRIEFQPPLKP [YMR020W 267-280] | 235 | – |
| NRPNSVDPALRRP [YLR397C 390-402] | 225 | – |
| NRTQRKTPTVIRP [YPL093W 23-35] | 330 | – |
| NIPPNSPGKLQLNT [YNR017W 123-136] | – | normalised SPOT signal, Boehringer light units (BLU); mean over the file's lines of this peptide [2]: 37.5; normalised SPOT signal, Boehringer light units (BLU); mean over the file's lines of this peptide [3]: 0; normalised SPOT signal, Boehringer light units (BLU); mean over the file's lines of this peptide [4]: 77.6; normalised SPOT signal, Boehringer light units (BLU); mean over the file's lines of this peptide [5]: 93.6; normalised SPOT signal, Boehringer light units (BLU); mean over the file's lines of this peptide [6]: 84.4 |
| NRPSVSHSQSPKRP [YNL080C 288-301] | 704 | – |
| NLKIDSAPAYLKP [YKR011C 56-68] | 112 | – |
| NRADTLDPALLRP [YDR394W 319-331] | 87.6 | – |
| NPSNKSIPFWKRP [YNL034W 381-393] | 342 | – |
| NLLLLDADNFPIKP [YBR015C 261-274] | 169 | – |

| Binder | normalised SPOT signal, Boehringer light units (BLU); mean over the file's lines of this peptide [1] | further results |
| --- | --- | --- |
| NIQTIAMPLTTKP [YIL053W 16-28] | 111 | – |
| NKIKETLPREKKP [YMR255W 67-79] | 179 | – |
| NNSGTGFPELYKP [YDR527W 27-39] | 24.7 | – |
| NNNQQKTPKLIKP [YJL087C 616-628] | 48.3 | – |
| NKIETLDPALIRP [YDL007W 329-341] | 270 | – |
| NQTPAQGPPLRRP [YDR479C 205-217] | 8650 | – |
| NRPAIRIPSLKKP [YML102W 307-319] | 5260 | – |
| NLGDIVTPTIQRP [YPL070W 456-468] | 45.9 | – |
| NRPNTLDPALLRP [YKL145W 356-368] | 89.2 | – |
| NRPDAVDPALRRP [YGR270W 562-574] | 53.9 | – |
| NRNTLSTPEEKKP [YER109C 669-681] | 201 | – |
| NHIPPFPLRFSFAQ [YDR421W 532-545] | – | normalised SPOT signal, Boehringer light units (BLU); mean over the file's lines of this peptide [2]: 119; normalised SPOT signal, Boehringer light units (BLU); mean over the file's lines of this peptide [3]: 106; normalised SPOT signal, Boehringer light units (BLU); mean over the file's lines of this peptide [4]: 2580; normalised SPOT signal, Boehringer light units (BLU); mean over the file's lines of this peptide [5]: 35.5; normalised SPOT signal, Boehringer light units (BLU); mean over the file's lines of this peptide [6]: 6920 |
| NKRDKKKKKYPRKP [YDR485C 329-342] | 0 | – |
| NKLLPPHPFADKP [YGL143C 142-154] | 69.9 | – |
| NKSKFTDMLDPEKP [YBR033W 382-395] | 160 | – |
| NKTFFLKPPIGRP [YBR182C 407-419] | 7480 | – |
| NLVNIWKPDFERP [YJR140C 1438-1450] | 130 | – |
| NLTTTSKPSLPEKP [YPR171W 329-342] | 610 | – |
| NLVQSIDPNHSKP [YPL075W 339-351] | 169 | – |
| NISIDYKPSRNKP [YKL126W 329-341] | 181 | – |
| NRPDTLDPALLRP [YOR259C 328-340] | 0 | – |
| NNPPQMVPKGVRP [YOR188W 1010-1022] | 1040 | – |
| NINPKQPPKTSGEK [YMR179W 373-386] | – | normalised SPOT signal, Boehringer light units (BLU); mean over the file's lines of this peptide [2]: 24.7; normalised SPOT signal, Boehringer light units (BLU); mean over the file's lines of this peptide [3]: 9.7; normalised SPOT signal, Boehringer light units (BLU); mean over the file's lines of this peptide [4]: 225; normalised SPOT signal, Boehringer light units (BLU); mean over the file's lines of this peptide [5]: 5.7; normalised SPOT signal, Boehringer light units (BLU); mean over the file's lines of this peptide [6]: 207 |
| NMPFTLNQSHPFKP [YMR067C 315-328] | 140 | – |
